# According to the supplement of paper PMC6379048:
# Key:
# Experiment in all cases: EC50 of free RNA motif oligo competing protein binding to immobilised probe
# CPSF1 = target: T1, CPSF1 (UniProt Q10570)
# T1 sequence: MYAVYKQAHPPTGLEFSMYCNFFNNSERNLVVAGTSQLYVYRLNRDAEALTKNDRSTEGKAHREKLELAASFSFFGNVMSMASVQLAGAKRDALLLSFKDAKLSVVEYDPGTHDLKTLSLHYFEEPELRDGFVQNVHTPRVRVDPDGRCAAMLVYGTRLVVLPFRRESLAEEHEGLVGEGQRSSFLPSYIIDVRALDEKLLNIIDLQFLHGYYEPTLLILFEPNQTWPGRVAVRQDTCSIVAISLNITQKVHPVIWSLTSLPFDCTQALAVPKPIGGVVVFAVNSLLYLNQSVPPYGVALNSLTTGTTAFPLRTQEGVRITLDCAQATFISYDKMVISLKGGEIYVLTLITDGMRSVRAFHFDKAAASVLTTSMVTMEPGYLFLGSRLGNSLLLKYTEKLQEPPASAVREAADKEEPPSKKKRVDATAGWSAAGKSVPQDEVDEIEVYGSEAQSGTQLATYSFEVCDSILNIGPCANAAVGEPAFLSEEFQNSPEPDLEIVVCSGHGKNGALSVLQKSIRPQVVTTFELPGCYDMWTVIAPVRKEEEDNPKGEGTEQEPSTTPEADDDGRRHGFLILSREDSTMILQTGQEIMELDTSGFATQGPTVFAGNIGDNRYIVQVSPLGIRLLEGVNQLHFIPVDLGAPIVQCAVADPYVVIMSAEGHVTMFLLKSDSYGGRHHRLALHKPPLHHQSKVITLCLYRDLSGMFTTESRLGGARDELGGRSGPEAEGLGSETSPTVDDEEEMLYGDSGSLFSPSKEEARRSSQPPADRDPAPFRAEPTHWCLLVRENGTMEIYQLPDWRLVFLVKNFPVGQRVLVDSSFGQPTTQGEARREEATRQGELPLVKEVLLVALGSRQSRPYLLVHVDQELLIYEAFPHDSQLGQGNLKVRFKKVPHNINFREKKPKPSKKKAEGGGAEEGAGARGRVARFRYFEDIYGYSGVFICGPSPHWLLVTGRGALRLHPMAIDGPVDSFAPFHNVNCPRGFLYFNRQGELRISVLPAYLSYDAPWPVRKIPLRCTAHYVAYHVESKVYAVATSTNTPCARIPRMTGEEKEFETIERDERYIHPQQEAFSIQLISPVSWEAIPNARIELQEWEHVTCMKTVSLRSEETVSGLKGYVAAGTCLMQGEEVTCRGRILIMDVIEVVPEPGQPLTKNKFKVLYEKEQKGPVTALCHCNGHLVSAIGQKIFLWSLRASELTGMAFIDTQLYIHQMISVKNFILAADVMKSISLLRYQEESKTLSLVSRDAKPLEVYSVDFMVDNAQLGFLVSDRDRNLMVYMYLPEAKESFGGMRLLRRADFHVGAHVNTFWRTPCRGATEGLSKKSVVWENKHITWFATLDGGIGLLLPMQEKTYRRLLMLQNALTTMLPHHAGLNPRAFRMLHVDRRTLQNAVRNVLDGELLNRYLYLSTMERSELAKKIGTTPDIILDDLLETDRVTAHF
# Method in brief: (§1)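 To obtain EC50, data were fitted with a four-parameter log-logistic model; Kd was then EC50 multiplied by a protein-dependent depletion factor. Beforehand, free RNA oligos (0 nM to 30 μM) were pre-incubated with HEK293-FT lysate (2.5 mg protein/well) for 1 h at 4°C. The lysate then spent 30 min at 4°C with the same 5′-amino-C6 oligos coupled to NHS-Sepharose beads, and bound proteins were quantified by label-free LC-MS/MS, normalised to the control.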
# RBM7 = target: T2, RBM7 (UniProt Q9Y580)
# T2 sequence: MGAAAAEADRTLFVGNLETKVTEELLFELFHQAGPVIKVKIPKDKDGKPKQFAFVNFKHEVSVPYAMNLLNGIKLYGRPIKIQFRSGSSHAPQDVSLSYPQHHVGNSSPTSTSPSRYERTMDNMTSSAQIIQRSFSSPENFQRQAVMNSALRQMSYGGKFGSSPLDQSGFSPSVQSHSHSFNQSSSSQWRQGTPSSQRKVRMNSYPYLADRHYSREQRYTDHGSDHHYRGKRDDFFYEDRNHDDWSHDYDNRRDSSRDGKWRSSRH
# Method in brief: as §1
# RBMS2 = target: T3, RBMS2 (UniProt Q15434)
# T3 sequence: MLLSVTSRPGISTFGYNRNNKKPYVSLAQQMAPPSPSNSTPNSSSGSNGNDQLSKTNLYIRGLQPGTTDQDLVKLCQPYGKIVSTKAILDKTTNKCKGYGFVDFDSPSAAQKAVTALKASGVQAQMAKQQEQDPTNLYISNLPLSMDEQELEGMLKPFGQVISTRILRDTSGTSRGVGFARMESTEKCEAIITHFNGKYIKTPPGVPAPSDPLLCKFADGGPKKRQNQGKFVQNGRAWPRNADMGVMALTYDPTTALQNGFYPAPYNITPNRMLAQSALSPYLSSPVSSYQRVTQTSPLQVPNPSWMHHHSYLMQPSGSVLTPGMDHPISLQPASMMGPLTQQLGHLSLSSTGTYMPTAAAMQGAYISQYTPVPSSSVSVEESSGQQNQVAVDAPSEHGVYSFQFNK
# Method in brief: as §1
# TSN = TSN (UniProt Q15631)
# Method in brief: as §1
# ZNF830 = target: T4, ZNF830 (UniProt Q96NB3)
# T4 sequence: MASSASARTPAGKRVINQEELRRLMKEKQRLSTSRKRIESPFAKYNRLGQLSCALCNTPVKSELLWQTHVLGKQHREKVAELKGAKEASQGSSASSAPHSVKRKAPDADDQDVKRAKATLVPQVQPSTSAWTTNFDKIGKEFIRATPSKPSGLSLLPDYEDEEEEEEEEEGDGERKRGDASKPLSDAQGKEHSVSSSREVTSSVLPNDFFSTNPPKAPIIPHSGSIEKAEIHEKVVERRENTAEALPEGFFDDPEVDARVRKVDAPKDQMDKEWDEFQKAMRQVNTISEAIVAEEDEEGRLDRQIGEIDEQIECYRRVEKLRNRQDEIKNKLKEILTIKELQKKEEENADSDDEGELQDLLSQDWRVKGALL
# Method in brief: as §1
# Sequence of TSN (Q15631 whole entry): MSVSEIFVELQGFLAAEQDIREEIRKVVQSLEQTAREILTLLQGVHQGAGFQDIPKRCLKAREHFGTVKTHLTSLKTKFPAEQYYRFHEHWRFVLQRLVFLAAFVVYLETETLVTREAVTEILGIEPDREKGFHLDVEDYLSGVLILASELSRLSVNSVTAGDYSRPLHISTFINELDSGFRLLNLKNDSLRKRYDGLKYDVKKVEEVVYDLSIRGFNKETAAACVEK
Sequence,EC50 (CPSF1) [nM],EC50 (RBM7) [nM],EC50 (RBMS2) [nM],EC50 (TSN) [nM],EC50 (ZNF830) [nM]
UAUUUAU,1710,312,545,75.2,378
AAUAAA,64.4,1930,1290,58.4,1030
